We go through 1 molecule from publication PMC4405178 (Biochemistry, 2015).

Where a chain is given by its changes, count along the chain named.

A word on the Kd: it is the equilibrium constant for the complex coming apart.

Holding throughout (experiment): flow cytometry on cells
On the technique in general: In flow cytometry, cells or beads pass a laser one at a time.

For assay [1], the target named is T1, C-terminally truncated Ste2p H94Y (Saccharomyces cerevisiae, UniProt D6VTK4 1-303, H94Y).
T1 sequence (looked up): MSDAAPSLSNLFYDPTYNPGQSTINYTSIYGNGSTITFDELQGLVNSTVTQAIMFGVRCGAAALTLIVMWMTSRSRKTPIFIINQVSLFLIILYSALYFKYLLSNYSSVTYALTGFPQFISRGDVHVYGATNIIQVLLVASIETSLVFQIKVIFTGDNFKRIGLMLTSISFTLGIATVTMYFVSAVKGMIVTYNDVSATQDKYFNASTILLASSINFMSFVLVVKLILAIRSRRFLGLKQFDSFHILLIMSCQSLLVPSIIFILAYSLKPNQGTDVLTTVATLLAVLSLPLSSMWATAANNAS

For assay [2], the target named is T2, full-length wild-type Ste2p (Saccharomyces cerevisiae, UniProt D6VTK4 1-431).
T2 sequence (looked up): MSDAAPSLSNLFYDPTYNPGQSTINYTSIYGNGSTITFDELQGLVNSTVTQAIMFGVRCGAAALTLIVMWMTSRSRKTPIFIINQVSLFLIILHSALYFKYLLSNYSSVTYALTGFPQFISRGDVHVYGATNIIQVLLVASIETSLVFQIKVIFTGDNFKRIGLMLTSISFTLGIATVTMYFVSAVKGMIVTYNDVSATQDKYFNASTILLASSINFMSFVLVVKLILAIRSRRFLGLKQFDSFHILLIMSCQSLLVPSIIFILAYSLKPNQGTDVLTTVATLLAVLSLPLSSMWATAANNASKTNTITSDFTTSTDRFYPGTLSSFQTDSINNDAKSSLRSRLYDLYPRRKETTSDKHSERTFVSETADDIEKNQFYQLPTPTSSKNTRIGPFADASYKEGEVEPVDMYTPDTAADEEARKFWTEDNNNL

For a further assay, the target named is T3, full-length Ste2p H94Y (Saccharomyces cerevisiae, UniProt D6VTK4 1-431, H94Y).
T3 sequence (looked up): T2 sequence (looked up) with H94Y

The target in the next assay is T4, full-length Ste2p S104Y (Saccharomyces cerevisiae, UniProt D6VTK4 1-431, S104Y).
T4 sequence (looked up): T2 sequence (looked up) with S104Y

A further assay has as its target T5, full-length Ste2p L211R (Saccharomyces cerevisiae, UniProt D6VTK4 1-431, L211R).
T5 sequence (looked up): T2 sequence (looked up) with L211R

B1: [K^7(NBD),Nle^12] α-factor (peptide)
chain: WHWLQLKPGQPMY
modifications: NBD (7-nitrobenz-2-oxa-1,3-diazol-4-yl) conjugated to the lysine at position 7; norleucine at position 12 in place of methionine
In the case of B1, the Kd is 47 ± 8.1 nM in assay [1]; 7.3 ± 0.9 nM in assay [2]; 5.2 ± 2.1 nM with full-length Ste2p H94Y; 2 ± 0.7 nM with full-length Ste2p S104Y; 0.8 ± 0.1 nM with full-length Ste2p L211R.
